Where a chain is given by its changes, count along the chain named. *1 amine or outer side, *2 acyl side, *3 side chain or, on linkers, in order; H or OH if unused. Where no end group is shown, it is not given here. Side-chain parts run from the residue outwards. [ ]: non-standard residue; d: D form. The star is where a group is joined. Decanoyl(10-(4-HOOC-PhO)) = O=C(O)c1ccc(OCCCCCCCCCC(=O)*)cc1; αMePhe(2-F) = C[C@](N)(Cc1ccccc1F)C(=O)O; γGlu = O=C(O)[C@H](CCC(=O)[*:2])N[*:1]; C14 diacid = O=C(O)CCCCCCCCCCCCC(=O)*; αMeY = C[C@](N)(Cc1ccc(O)cc1)C(=O)O; αMeL = CC(C)C[C@](C)(N)C(=O)O; Orn = NCCC[C@H](N)C(=O)O; AEEA = NCCOCCOCC(=O)O; Aib = CC(C)(N)C(=O)O
T1: human GIP receptor (human, UniProt P48546 22-466)
T1 sequence (looked up): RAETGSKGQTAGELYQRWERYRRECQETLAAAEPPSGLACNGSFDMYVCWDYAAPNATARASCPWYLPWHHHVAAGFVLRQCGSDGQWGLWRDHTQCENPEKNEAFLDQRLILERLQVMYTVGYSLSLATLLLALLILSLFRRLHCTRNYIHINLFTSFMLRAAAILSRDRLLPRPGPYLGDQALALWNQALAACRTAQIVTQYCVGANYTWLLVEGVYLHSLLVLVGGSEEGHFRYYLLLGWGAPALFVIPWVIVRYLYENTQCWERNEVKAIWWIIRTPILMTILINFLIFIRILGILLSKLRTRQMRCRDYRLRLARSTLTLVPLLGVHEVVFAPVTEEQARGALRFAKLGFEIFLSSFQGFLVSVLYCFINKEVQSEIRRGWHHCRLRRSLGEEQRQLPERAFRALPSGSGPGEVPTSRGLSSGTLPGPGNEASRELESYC

T2: human GIP receptor (human) (UniProt P48546)
T2 sequence (looked up): T1 sequence (looked up)

T3: human GIP receptor (human, UniProt P48546 22-466)
T3 sequence (looked up): T1 sequence (looked up)

B1: Example 390 (peptide)
peptide: Y[Aib]EGT[αMePhe(2-F)]TSDV[Aib]I[αMeL]LD[Orn]QAQ[Aib]EFIK([AEEA-AEEA-γGlu-C14 diacid])[αMeY]LIK([AEEA-AEEA-γGlu-C14 diacid])GGPSSGAPPPS-NH2
modifications: N-terminus assumed
SMILES: CC[C@H](C)[C@H](NC(=O)[C@H](CC(C)C)NC(=O)[C@](C)(Cc1ccc(O)cc1)NC(=O)[C@H](CCCCNC(=O)COCCOCCNC(=O)COCCOCCNC(=O)CC[C@H](NC(=O)CCCCCCCCCCCCC(=O)O)C(=O)O)NC(=O)[C@@H](NC(=O)[C@H](Cc1ccccc1)NC(=O)[C@H](CCC(=O)O)NC(=O)C(C)(C)NC(=O)[C@H](CCC(N)=O)NC(=O)[C@H](C)NC(=O)[C@H](CCC(N)=O)NC(=O)[C@H](CCCN)NC(=O)[C@H](CC(=O)O)NC(=O)[C@H](CC(C)C)NC(=O)[C@](C)(CC(C)C)NC(=O)[C@@H](NC(=O)C(C)(C)NC(=O)[C@@H](NC(=O)[C@H](CC(=O)O)NC(=O)[C@H](CO)NC(=O)[C@@H](NC(=O)[C@](C)(Cc1ccccc1F)NC(=O)[C@@H](NC(=O)CNC(=O)[C@H](CCC(=O)O)NC(=O)C(C)(C)NC(=O)[C@@H](N)Cc1ccc(O)cc1)[C@@H](C)O)[C@@H](C)O)C(C)C)[C@@H](C)CC)[C@@H](C)CC)C(=O)N[C@@H](CCCCNC(=O)COCCOCCNC(=O)COCCOCCNC(=O)CC[C@H](NC(=O)CCCCCCCCCCCCC(=O)O)C(=O)O)C(=O)NCC(=O)NCC(=O)N1CCC[C@H]1C(=O)N[C@@H](CO)C(=O)N[C@@H](CO)C(=O)NCC(=O)N[C@@H](C)C(=O)N1CCC[C@H]1C(=O)N1CCC[C@H]1C(=O)N1CCC[C@H]1C(=O)N[C@@H](CO)C(N)=O
B2: Example 351 (peptide)
peptide: YXEGTXTSDXXIXLDXKAQXXFIXXLIKGGPSSGAPPPS
modifications: Y-Aib-EGT-αMeF(2F)-TSD-4Pal-Aib-I-αMeL-LD-Orn-K((2-[2-(2-Amino-ethoxy)-ethoxy]-acetyl)2-(α-Glu)-(10-(4-carboxyphenoxy)decanoyl))AQ-Aib-Om-FI-(D-Glu)-αMeY-LIK((2-[2-(2-Amino-ethoxy)-ethoxy]-acetyl)2-(γ-Glu)-(10-(4-carboxyphenoxy)decanoyl))GGPSSGAPPPS-NH2
B3: Example 402 (peptide)
peptide: B2 peptide with X10Y, K17Q, X21E, X24K
modifications: Y-Aib-EGT-αMeF(2F)-TSDY-Aib-I-αMeL-LD-Orn-QAQ-Aib-EFIK((2-[2-(2-Amino-ethoxy)-ethoxy]-acetyl)2-(γ-Glu)-(10-(4-carboxyphenoxy)decanoyl))-αMeY-LIK((2-[2-(2-Amino-ethoxy)-ethoxy]-acetyl)2-(γ-Glu)-(10-(4-carboxyphenoxy)decanoyl))GGPSSGAPPPS-NH2
B4: Example 355 (peptide)
peptide: B2 peptide with X10Y, K17I, X24K
modifications: Y-Aib-EGT-αMeF(2F)-TSDY-Aib-I-αMeL-LD-Orn-IAQ-Aib-Orn-FIK((2-[2-(2-Amino-ethoxy)-ethoxy]-acetyl)2-(γ-Glu)-(10-(4-carboxyphenoxy)decanoyl))-αMeY-LIK((2-[2-(2-Amino-ethoxy)-ethoxy]-acetyl)2-(γ-Glu)-(10-(4-carboxyphenoxy)decanoyl))GGPSSGAPPPS-NH2
B5: Example 375 (peptide)
peptide: B2 peptide with X10Y, K17I, X21E, X24K
modifications: Y-Aib-EGT-αMeF(2F)-TSDY-Aib-I-αMeL-LD-Orn-IAQ-Aib-EFIK((2-[2-(2-Amino-ethoxy)-ethoxy]-acetyl)-(γ-Glu)-(10-(4-carboxyphenoxy)decanoyl))-αMeY-LIK((2-[2-(2-Amino-ethoxy)-ethoxy]-acetyl)-(γ-Glu)-(10-(4-carboxyphenoxy)decanoyl))GGPSSGAPPPS-NH2
B6: Example 401 (peptide)
peptide: B2 peptide with X10Y, K17Q, X24K
modifications: Y-Aib-EGT-αMeF(2F)-TSDY-Aib-I-αMeL-LD-Orn-QAQ-Aib-Orn-FIK((2-[2-(2-Amino-ethoxy)-ethoxy]-acetyl)2-(γ-Glu)-CO-(CH2)12-CO2H)-αMeY-LIK((2-[2-(2-Amino-ethoxy)-ethoxy]-acetyl)2-(γ-Glu)-CO-(CH2)12-CO2H)GGPSSGAPPPS-NH2
B7: Example 391 (peptide)
peptide: B2 peptide with K17Q, X24K
modifications: Y-Aib-EGT-αMeF(2F)-TSD-4Pal-Aib-I-αMeL-LD-Orn-QAQ-Aib-Orn-FIK((2-[2-(2-Amino-ethoxy)-ethoxy]-acetyl)2-(γ-Glu)-CO-(CH2)12-CO2H)-αMeY-LIK((2-[2-(2-Amino-ethoxy)-ethoxy]-acetyl)2-(γ-Glu)-CO-(CH2)12-CO2H)GGPSSGAPPPS-NH2
B8: Example 363 (peptide)
peptide: B2 peptide with X10Y, K17I, X21E, X24K
modifications: Y-Aib-EGT-αMeF(2F)-TSDY-Aib-I-αMeL-LD-Orn-IAQ-Aib-EFIK((2-[2-(2-Amino-ethoxy)-ethoxy]-acetyl)2-(γ-Glu)-(2-[2-(2-Amino-ethoxy)-ethoxy]-acetyl)-CO-(CH2)12-CO2H)-αMeY-LIK((2-[2-(2-Amino-ethoxy)-ethoxy]-acetyl)2-(γ-Glu)-(2-[2-(2-Amino-ethoxy)-ethoxy]-acetyl)-CO-(CH2)12-CO2H)GGPSSGAPPPS-NH2
B9: Example 365 (peptide)
peptide: B2 peptide with X10Y, K17I, X21E, X24K
modifications: Y-Aib-EGT-αMeF(2F)-TSDY-Aib-I-αMeL-LD-Orn-IAQ-Aib-EFIK((2-[2-(2-Amino-ethoxy)-ethoxy]-acetyl)-(γ-Glu)-(2-[2-(2-Amino-ethoxy)-ethoxy]-acetyl)-CO-(CH2)12-CO2H)-αMeY-LIK((2-[2-(2-Amino-ethoxy)-ethoxy]-acetyl)-(γ-Glu)-(2-[2-(2-Amino-ethoxy)-ethoxy]-acetyl)-CO-(CH2)12-CO2H)GGPSSGAPPPS-NH2

How the values were obtained:
Assay in all cases: cell-based or functional assay
[1] = biological target: T1, human GIP receptor
[2] = biological target: human glucagon receptor (human, UniProt P47871 26-477)
Target sequence in this assay (P47871 26-477): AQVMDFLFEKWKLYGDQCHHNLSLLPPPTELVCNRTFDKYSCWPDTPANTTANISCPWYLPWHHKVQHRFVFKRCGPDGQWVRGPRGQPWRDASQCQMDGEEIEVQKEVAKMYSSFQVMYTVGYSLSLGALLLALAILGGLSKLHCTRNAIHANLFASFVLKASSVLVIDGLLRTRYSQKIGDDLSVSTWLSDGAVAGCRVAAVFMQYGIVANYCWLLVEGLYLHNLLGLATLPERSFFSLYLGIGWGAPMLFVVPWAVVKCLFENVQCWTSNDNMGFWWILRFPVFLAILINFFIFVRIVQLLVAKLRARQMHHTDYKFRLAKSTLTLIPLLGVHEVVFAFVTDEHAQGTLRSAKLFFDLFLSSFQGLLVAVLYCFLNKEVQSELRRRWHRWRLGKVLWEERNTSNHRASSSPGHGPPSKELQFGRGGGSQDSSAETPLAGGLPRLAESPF

[3] = biological target: human GLP-1 receptor (human, UniProt P43220 24-463)
[4] = biological target: hGLP-1R (Homo sapiens, UniProt P43220)
[5] = biological target: human glucagon receptor (human) (UniProt P47871)
[6] = biological target: T2, human GIP receptor (human)
[7] = biological target: human GLP-1 receptor (human, UniProt P43220 24-463); remark: listed apart in the source
[8] = biological target: T3, human GIP receptor; remark: listed apart in the source
[9] = biological target: human glucagon receptor (human, UniProt P47871 26-477); remark: listed apart in the source

Binder	cAMP EC50 (1.0% HSA) [1] [nM]	cAMP Emax (1.0% HSA) [1] [%]	cAMP EC50 (1.0% HSA) [2] [nM]	cAMP EC50 (1.0% HSA) [3] [nM]	cAMP Emax (1.0% HSA) [3] [%]	further results
B1	3.85	89.3	> 9950	24.3	94.6	–
Y[Aib]EGT[αMePhe(2-F)]TSDV[Aib]I[αMeL]LD[Orn]IAQ[Aib][Orn]FIK([AEEA-AEEA-γGlu-Decanoyl(10-(4-HOOC-PhO))])[αMeY]LIK([AEEA-AEEA-γGlu-Decanoyl(10-(4-HOOC-PhO))])GGPSSGAPPPS-NH2 [Example 356]	2.47	82.7	> 9950	23.4	–	–
B2	–	–	–	–	–	cAMP EC50 [4]: 0.397 nM; cAMP Emax [4]: 100%; cAMP EC50 [5]: > 9950 nM; cAMP EC50 [6]: 0.0185 nM; cAMP Emax [6]: 102%; cAMP EC50 (1.0% HSA) [7]: 5.8 nM; cAMP Emax (1.0% HSA) [7]: 91%; cAMP EC50 (1.0% HSA) [8]: 0.722 nM; cAMP Emax (1.0% HSA) [8]: 67.9%; cAMP EC50 (1.0% HSA) [9]: > 9950 nM
B3	1.11	84.5	> 9950	13.5	–	–
B4	1.81	–	> 9950	11.3	109	–
B5	4.68	–	> 9950	56.1	–	–
B6	0.434	83	> 9950	5.39	107	–
B7	0.266	–	> 9950	2.62	–	–
B8	0.976	–	> 9950	14.3	–	–
B9	1.93	–	> 9950	22.3	91	–
